Publication PMC12650828, “Dual-Mode Aptamer AP1-F Achieves Molecular–Morphological Precision in Cancer Diagnostics via Membrane NCL Targeting”

Biological target: nucleolin (NCL) (Homo sapiens, UniProt P19338 1-710)
Experiment: MST; MST: 300 nM FAM-aptamer, NCL 1.95 nM-4 uM, binding buffer not specified, 25 C, 15 min; AP1-AP6 and Mut folded in 100 mM KCl, 10 mM K3PO4 pH 7.0; AS1411 in 100 mM NaCl, 10 mM Tris-HCl pH 7.0; cell competition at 4 C, 1 h
Settings: protein: commercial, label: 5'-FAM (amide bond linker)

Sequence of nucleolin (NCL) (P19338 whole entry): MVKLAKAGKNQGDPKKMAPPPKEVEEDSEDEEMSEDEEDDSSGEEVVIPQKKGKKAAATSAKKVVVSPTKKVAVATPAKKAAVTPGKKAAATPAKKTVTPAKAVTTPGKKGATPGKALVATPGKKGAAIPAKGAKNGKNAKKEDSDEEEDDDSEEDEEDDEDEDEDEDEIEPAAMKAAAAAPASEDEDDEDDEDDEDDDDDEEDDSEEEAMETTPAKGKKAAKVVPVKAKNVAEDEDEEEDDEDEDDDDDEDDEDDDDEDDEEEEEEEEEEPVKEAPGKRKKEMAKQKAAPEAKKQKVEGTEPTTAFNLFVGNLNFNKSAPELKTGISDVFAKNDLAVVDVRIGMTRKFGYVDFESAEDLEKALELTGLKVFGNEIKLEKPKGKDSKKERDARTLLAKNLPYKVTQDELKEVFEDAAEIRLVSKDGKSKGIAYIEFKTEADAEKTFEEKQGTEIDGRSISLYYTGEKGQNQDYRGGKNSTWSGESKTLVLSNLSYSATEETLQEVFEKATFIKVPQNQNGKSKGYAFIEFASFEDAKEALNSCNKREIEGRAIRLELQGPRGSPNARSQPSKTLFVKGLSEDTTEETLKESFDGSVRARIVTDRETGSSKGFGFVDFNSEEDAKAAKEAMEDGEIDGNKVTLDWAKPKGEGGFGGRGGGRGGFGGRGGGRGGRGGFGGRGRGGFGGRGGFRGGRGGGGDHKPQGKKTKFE

| Binder | Kd (G4, loop-length variant) [nM] | Kd (G4) [nM] |
| --- | --- | --- |
| GUUAGGGUUUAUUUGGGAUUG (structured_RNA) [AP5-F] | 926 ± 140 |  |
| GUUAGGGUUUAUGGGAUUG (structured_RNA) [AP3-F] | 499 ± 95.5 |  |
| GUUAGGGUUUAUUAUGGGAUUG (structured_RNA) [AP6-F] | 507 ± 132 |  |
| GUUAGGGUUUGGGAUUG (structured_RNA) [AP1-F] |  | 474 ± 47.7 |
| GUUAGGGUUUUGGGAUUG (structured_RNA) [AP2-F] | 621 ± 269 |  |
| GUUAGGGUUUAUUGGGAUUG (structured_RNA) [AP4-F] | 822 ± 290 |  |
